The record followed here is US20130034559A1 (AstraZeneca / MedImmune, published 2013).

Assay [1] deals with T1, recombinant monomeric human B7-H1 FlagHis10 extracellular domain (human, UniProt Q9NZQ7 19-238).
T1 construct: extracellular domain; also called HIS FLAG tagged human B7-H1; HIS FLAG tagged B7-H1; not shown: FlagHis10 tag
Briefly: SPR (BIAcore T100), IgG captured via protein G, monomeric B7-H1 ECD as analyte, 25 °C, 1:1 model. The method, then: The binding affinity and kinetic parameters of anti-B7-H1 antibodies in the IgG1-TM format to monomeric human and cynomologus B7-H1 were determined by surface plasmon resonance using a BIAcore T100 instrument (BIAcore, Uppsala, Sweden). In brief, experiments were performed at 25° C. using HBS-EP buffer (10 mM HEPES, 150 mM NaCl, 3 mM EDTA, 0.05% v/v surfactant P20) as running buffer. IgGs were affinity captured on the surface of a CM5 sensor chip (BIAcore) via protein G, which was amine coupled onto the CM5 surface to achieve the density of ˜500 Response Units (RU), according to the manufacturer's instructions (BIAapplications Handbook, BIAcore). Recombinant monomeric human or cynomologus B7-H1 FlagHis₁₀ extracellular domains (ECDs) were used as analytes. […] All measurements were baseline corrected by subtracting the sensorgram obtained with the control (activated-deactivated) flow cell, as well as double referenced with blank (zero analyte concentration) injections. Data were analyzed using the T-100 BIAevaluation software package and fitted to a simple 1:1 Langmuir binding model with local Rₘₐₓ and bulk refractive index set to 0. Data were calculated from at least two independent experiments. Mass transport effects were limited by keeping the level of affinity-captured IgGs below 250 RU.

The next assay addresses T2, B7H1_F19A (human, UniProt Q9NZQ7 19-238).
T2 construct: range 19-238; also called human B7-H1 extracellular domain mutant F19A
Put plainly: HTRF competition: untagged B7-H1 sample against HIS FLAG tagged human B7-H1 for labelled antibody. As to the method:
(§1) The HTRF® competition assays measured the binding of anti-B7-H1 antibody to HIS FLAG tagged B7-H1. Titration of non tagged B7-H1 samples, prepared as described above, will compete with HIS FLAG tagged B7-H1 for binding to anti-B7-H1 antibody, leading to a reduction in assay signal. […] 10 μl of B7-H1 sample was added to a 384 well low volume assay plate (Corning 3673). […] Assay plates were incubated for 4 hours at room temperature prior to reading time resolved fluorescence at 620 nm and 665 nm emission wavelengths using an EnVision plate reader (Perkin Elmer).

Another assay concerns the target T3, B7H1_F19G (human, UniProt Q9NZQ7 19-238).
T3 construct: range 19-238; also called human B7-H1 extracellular domain mutant F19G
The assay is described as above. As to the method: as §1

Another assay addresses T4, B7H1_F19S (human, UniProt Q9NZQ7 19-238).
T4 construct: range 19-238; also called human B7-H1 extracellular domain mutant F19S
The description is as above. The method, then:
as §1

For another assay, the target named is T5, B7H1_T20A (human, UniProt Q9NZQ7 19-238).
T5 construct: range 19-238; also called human B7-H1 extracellular domain mutant T20A
T5 sequence (Q9NZQ7 19-238 T20A limits assumed): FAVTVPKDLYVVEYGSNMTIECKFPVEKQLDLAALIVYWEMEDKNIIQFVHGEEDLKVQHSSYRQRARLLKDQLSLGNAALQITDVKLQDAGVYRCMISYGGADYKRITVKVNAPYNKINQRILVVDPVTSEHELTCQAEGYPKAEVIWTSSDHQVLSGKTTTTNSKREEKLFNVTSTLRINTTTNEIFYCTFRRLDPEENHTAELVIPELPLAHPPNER
Described as above. The method, then: as §1

Another assay concerns the target T6, B7H1_T20D (human, UniProt Q9NZQ7 19-238).
T6 construct: range 19-238; also called human B7-H1 extracellular domain mutant T20D
The description is as above. As to the method:
as §1

The target of the next assay is T7, B7H1_R113Y (human, UniProt Q9NZQ7 19-238).
T7 construct: range 19-238; also called human B7-H1 extracellular domain mutant R113Y
T7 sequence (Q9NZQ7 19-238 R113Y limits assumed): as the sequence (Q9NZQ7 19-238 T20A limits assumed) above, with A2T, R95Y counted along it
Described as above. The method, then: as §1

T1 sequence (Q9NZQ7 19-238): as the sequence (Q9NZQ7 19-238 T20A limits assumed) above, with A2T counted along it
T2 sequence (Q9NZQ7 19-238 F19A limits assumed): as the sequence (Q9NZQ7 19-238 T20A limits assumed) above, with F1A, A2T counted along it
T6 sequence (Q9NZQ7 19-238 T20D limits assumed): as the sequence (Q9NZQ7 19-238 T20A limits assumed) above, with A2D counted along it
T3 sequence (Q9NZQ7 19-238 F19G limits assumed): as the sequence (Q9NZQ7 19-238 T20A limits assumed) above, with F1G, A2T counted along it
T4 sequence (Q9NZQ7 19-238 F19S limits assumed): as the sequence (Q9NZQ7 19-238 T20A limits assumed) above, with F1S, A2T counted along it

B1: 2.7A4OPT (antibody, V domains shown)
VH: EVQLVESGGGLVKPGGSLRLSCAASGFTFSTYSMNWVRQAPGKGLEWVSSISSSGDYIYYADSVKGRFTISRDNAKNSLYLQMNSLRAEDTAVYYCARDLVTSMVAFDYWGQGTLVTVSS
VL: SYELTQPPSVSVSPGQTARITCSGDALPQKYVFWYQQKSGQAPVLVIYEDSKRPSGIPERFSGSSSGTMATLTISGAQVEDEADYYCYSTDRSGNHRVFGGGTKLTVL
notes: Germlined variable domains; human IgG1-TM (L234F, L235E, P331S), lambda; also called 2.7A4OPT IgG1-TM
In the case of B1, the dissociation constant Kd in assay [1] was found to be 1 nM. Moreover, the koff in assay [1] was determined as 0.0012 s⁻¹. The kon in assay [1] was 1.24e+06 M⁻¹ s⁻¹. The binding result with B7H1_F19A, with B7H1_F19G, with B7H1_F19S, in the assay with B7H1_T20A, in the assay with B7H1_T20D and with B7H1_R113Y was “no binding” in each case.
